Test results as given in patent publication US20260139033A1 (PRANA THERAPIES, published 2026).

B1: Candidate-23: Dupilumab-YTE_Linker-GS4_TSLP TRAP 1 (bispecific antibody, human IgG4 S228P, kappa)
heavy: EVQLVESGGGLEQPGGSLRLSCAGSGFTFRDYAMTWVRQAPGKGLEWVSSISGSGGNTYYADSVKGRFTISRDNSKNTLYLQMNSLRAEDTAVYYCAKDRLSITIRPRYYGLDVWGQGTTVTVSSASTKGPSVFPLAPCSRSTSESTAALGCLVKDYFPEPVTVSWNSGALTSGVHTFPAVLQSSGLYSLSSVVTVPSSSLGTKTYTCNVDHKPSNTKVDKRVESKYGPPCPPCPAPEFLGGPSVFLFPPKPKDTLYITREPEVTCVVVDVSQEDPEVQFNWYVDGVEVHNAKTKPREEQFNSTYRVVSVLTVLHQDWLNGKEYKCKVSNKGLPSSIEKTISKAKGQPREPQVYTLPPSQEEMTKNQVSLTCLVKGFYPSDIAVEWESNGQPENNYKTTPPVLDSDGSFFLYSRLTVDKSRWQEGNVFSCSVMHEALHNHYTQKSLSLSLGGGGGSGGGGSGGGGSGGGGSGAAEGVQIQIIYFNLETVQVTWNASKYSRTNLTFHYRFNGDEAYDQCTNYLLQEGHTSGCLLDAEQRDDILYFSIRNGTHPVFTASRWMVYYLKPSSPKHVRFSWHQDAVTVTCSDLSYGDLLYEVQYRSPFDTEWQSKQENTCNVTIEGLDAEKCYSFWVRVKAMEDVYGPDTYPSDWSEVTCWQRGEIRDACAETPTPPKPKLSKGGSGGSGGSGGSGGSGGSGGSGGSGGSGGSGGSGGSGGSGGSGGSGGSGGSGGSGGSGGSESGYAQNGDLEDAELDDYSFSCYSQLEVNGSQHSLTCAFEDPDVNITNLEFEICGALVEVKCLNFRKLQEIYFIETKKFLLIGKSNICVKVGEKSLTCKKIDLTTIVKPEAPFDLSVVYREGANDFVVTFNTSHLQKKYVKVLMHDVAYRQEKDENKWTHVNLSSTKLTLLQRKLQPAAMYEIKVRSIPDHYFKGFWSEWSPSYYFRTPEINNSSGEMD
light: DIVMTQSPLSLPVTPGEPASISCRSSQSLLYSIGYNYLDWYLQKSGQSPQLLIYLGSNRASGVPDRFSGSGSGTDFTLKISRVEAEDVGFYYCMQALQTPYTFGQGTKLEIKRTVAAPSVFIFPPSDEQLKSGTASVVCLLNNFYPREAKVQWKVDNALQSGNSQESVTEQDSKDSTYSLSSTLTLSKADYEKHKVYACEVTHQGLSSPVTKSFNRGEC
notes: The chains here are built from the component entries; TRAP sits at the C-terminus of the heavy chain
B2: dupilumab (antibody, V domains shown)
VH: EVQLVESGGGLEQPGGSLRLSCAGSGFTFRDYAMTWVRQAPGKGLEWVSSISGSGGNTYYADSVKGRFTISRDNSKNTLYLQMNSLRAEDTAVYYCAKDRLSITIRPRYYGLDVWGQGTTVTVS
VL: DIVMTQSPLSLPVTPGEPASISCRSSQSLLYSIGYNYLDWYLQKSGQSPQLLIYLGSNRASGVPDRFSGSGSGTDFTLKISRVEAEDVGFYYCMQALQTPYTFGQGTKLEIK
B3: Candidate-5 (TRAP-2) (other)
heavy chain with C-terminal TSLP TRAP 2 (palivizumab-YTE heavy chain, first linker, TSLP-TRAP): QVTLRESGPALVKPTQTLTLTCTFSGFSLSTSGMSVGWIRQPPGKALEWLADIWWDDKKDYNPSLKSRLTISKDTSANQVVLKVTNMDPADTATYYCARSMITNWYFDVWGAGTTVTVSSASTKGPSVFPLAPCSRSTSESTAALGCLVKDYFPEPVTVSWNSGALTSGVHTFPAVLQSSGLYSLSSVVTVPSSSLGTKTYTCNVDHKPSNTKVDKRVESKYGPPCPPCPAPEFLGGPSVFLFPPKPKDTLYITREPEVTCVVVDVSQEDPEVQFNWYVDGVEVHNAKTKPREEQFNSTYRVVSVLTVLHQDWLNGKEYKCKVSNKGLPSSIEKTISKAKGQPREPQVYTLPPSQEEMTKNQVSLTCLVKGFYPSDIAVEWESNGQPENNYKTTPPVLDSDGSFFLYSRLTVDKSRWQEGNVFSCSVMHEALHNHYTQKSLSLSLGGGGGSGGGGSGGGGSGGGGSESGYAQNGDLEDAELDDYSFSCYSQLEVNGSQHSLTCAFEDPDVNITNLEFEICGALVEVKCLNFRKLQEIYFIETKKFLLIGKSNICVKVGEKSLTCKKIDLTTIVKPEAPFDLSVVYREGANDFVVTFNTSHLQKKYVKVLMHDVAYRQEKDENKWTHVNLSSTKLTLLQRKLQPAAMYEIKVRSIPDHYFKGFWSEWSPSYYFRTPEINNSSGEMDGGSGGSGGSGGSGGSGGSGGSGGSGGSGGSGGSGGSGGSGGSGGSGGSGGSGGSGGSGGSGAAEGVQIQIIYFNLETVQVTWNASKYSRTNLTFHYRFNGDEAYDQCTNYLLQEGHTSGCLLDAEQRDDILYFSIRNGTHPVFTASRWMVYYLKPSSPKHVRFSWHQDAVTVTCSDLSYGDLLYEVQYRSPFDTEWQSKQENTCNVTIEGLDAEKCYSFWVRVKAMEDVYGPDTYPSDWSEVTCWQRGEIRDACAETPTPPKPKLSK
light chain: DIQMTQSPSTLSASVGDRVTITCKCQLSVGYMHWYQQKPGKAPKLLIYDTSKLASGVPSRFSGSGSGTAFTLTISSLQPDDFATYYCFQGSGYPFTFGGGTKLEIKRTVAAPSVFIFPPSDEQLKSGTASVVCLLNNFYPREAKVQWKVDNALQSGNSQESVTEQDSKDSTYSLSSTLTLSKADYEKHKVYACEVTHQGLSSPVTKSFNRGEC
notes: Monospecific TSLP-TRAP complex on palivizumab (human IgG4 S228P, YTE)
B4: Candidate-25 (TRAP-2) (bispecific antibody, human IgG4 S228P, kappa)
heavy chain: EVQLVESGGGLEQPGGSLRLSCAGSGFTFRDYAMTWVRQAPGKGLEWVSSISGSGGNTYYADSVKGRFTISRDNSKNTLYLQMNSLRAEDTAVYYCAKDRLSITIRPRYYGLDVWGQGTTVTVSSASTKGPSVFPLAPCSRSTSESTAALGCLVKDYFPEPVTVSWNSGALTSGVHTFPAVLQSSGLYSLSSVVTVPSSSLGTKTYTCNVDHKPSNTKVDKRVESKYGPPCPPCPAPEFLGGPSVFLFPPKPKDTLYITREPEVTCVVVDVSQEDPEVQFNWYVDGVEVHNAKTKPREEQFNSTYRVVSVLTVLHQDWLNGKEYKCKVSNKGLPSSIEKTISKAKGQPREPQVYTLPPSQEEMTKNQVSLTCLVKGFYPSDIAVEWESNGQPENNYKTTPPVLDSDGSFFLYSRLTVDKSRWQEGNVFSCSVMHEALHNHYTQKSLSLSLG
light chain with N-terminal TSLP TRAP 2 (TSLP-TRAP, first linker, dupilumab-YTE light chain): ESGYAQNGDLEDAELDDYSFSCYSQLEVNGSQHSLTCAFEDPDVNITNLEFEICGALVEVKCLNFRKLQEIYFIETKKFLLIGKSNICVKVGEKSLTCKKIDLTTIVKPEAPFDLSVVYREGANDFVVTFNTSHLQKKYVKVLMHDVAYRQEKDENKWTHVNLSSTKLTLLQRKLQPAAMYEIKVRSIPDHYFKGFWSEWSPSYYFRTPEINNSSGEMDGGSGGSGGSGGSGGSGGSGGSGGSGGSGGSGGSGGSGGSGGSGGSGGSGGSGGSGGSGGSGAAEGVQIQIIYFNLETVQVTWNASKYSRTNLTFHYRFNGDEAYDQCTNYLLQEGHTSGCLLDAEQRDDILYFSIRNGTHPVFTASRWMVYYLKPSSPKHVRFSWHQDAVTVTCSDLSYGDLLYEVQYRSPFDTEWQSKQENTCNVTIEGLDAEKCYSFWVRVKAMEDVYGPDTYPSDWSEVTCWQRGEIRDACAETPTPPKPKLSKGGGGSGGGGSGGGGSGGGGSDIVMTQSPLSLPVTPGEPASISCRSSQSLLYSIGYNYLDWYLQKSGQSPQLLIYLGSNRASGVPDRFSGSGSGTDFTLKISRVEAEDVGFYYCMQALQTPYTFGQGTKLEIKRTVAAPSVFIFPPSDEQLKSGTASVVCLLNNFYPREAKVQWKVDNALQSGNSQESVTEQDSKDSTYSLSSTLTLSKADYEKHKVYACEVTHQGLSSPVTKSFNRGEC
notes: also called Light chain N-terminal TRAP: TSLP TRAP 2_Linker-GS4_Dupilumab-YTE [2 x TRAP 2]

What was measured:
recombinant human TSLP [1] = target: T1, recombinant human TSLP (human, UniProt Q969D9 29-159); assay: SPR (Biacore 3000, CM5 chip, 25 C): complex captured via protein A, TSLP as analyte, 1:1 fit; column 'TSLP binding(pM)'
T1 construct: also called thymic stromal lymphopoietin
Protocol: (§1) SPR studies were carried out on a Biacore 3000 instrument with a CM5 chip at 25° C. The running buffer comprised 25 mM Hepes, pH 7.5, 150 mM NaCl, 0.5 mg/ml BSA, 0.005% P20. Antibodies were captured via protein A using approximately a 1/50 dilution of each antibody in the running buffer and a 2-minute contact time at a 10 μl/min flow rate. Protein A was immobilized on a CM5 chip via standard amine coupling chemistry in 10 mM acetate pH 4.5. Approximately 800 RU of each antibody was captured. The surfaces were regenerated via a 10 mM glycine pH 1.5 between cycles. Between assays the chip was regenerated with a 2-minute pulse of 100 mM Phosphoric acid. Prior to setting up multicycle kinetic analysis analyte concentration was determined spectrophotometrically using an extinction coefficient of 72,880 M⁻¹ cm⁻¹ for IL4R and 18450 M⁻¹ cm⁻¹ for the TSLP proteins respectively. Analyte samples were prepared by diluting stocks into running buffer to a final concentration of 500 nM for the IL-4R and 25 nM for TSLP followed by serially diluting with a 2-fold series with an association time of 2.5 minutes at a 50 μl/min flow rate. Dissociation data was collected for a period of 1600 seconds. Raw data was analyzed using the Scrubber2 (Biologic Software, AU) program using a double referencing procedure where compound signal is corrected to a blank surface and a buffer injection over the captured antibody surface. Kinetic data was analyzed by fitting to a simple 1:1 binding model. […] The candidates are further described in Table 3.

recombinant human TSLP [2] = target: T1, recombinant human TSLP; assay: cell-based or functional assay
[3] = target: IL-4R on human donor PBMC (B-cells) (human, UniProt P24394 26-825); assay: cell-based or functional assay
recombinant human TSLP [4] = target: T1, recombinant human TSLP; assay: SPR; column 'SPR (Biophysical binding): TSLP (pM)'
Protocol: as §1

| Binder | Kd (recombinant human TSLP [1]) [nM] | IC50, TARC secretion in response to TSLP in PBMCs (recombinant human TSLP [2]) [nM] | IC50, upregulation of CD23 in response to IL-4 in PBMCs [3] [nM] | Kd (recombinant human TSLP [4]) [nM] | IC50, IL-4 biological assay (CD23 upregulation in PBMCs) [3] [nM] |
| --- | --- | --- | --- | --- | --- |
| B1 | 0.0259 | 1.7 | 17.1 | 0.0259 | – |
| B2 | – | – | – | – | 4.7 |
| B3 | 0.0013 | – | – | – | – |
| B4 | 0.0166 | – | – | – | – |
